Results on one molecule are retold here after patent US20190071490A1, “Preventing Post-Ictal Headaches” (Beth Israel Deaconess Medical Center, Inc., priority 2017, published 2019).

Experiment [1] deals with T1, 38A (25-38A) human α-CGRP (Homo sapiens, UniProt P06881).
T1 construct: 25-38A; 24; purchased GenScript Corporation, New Jersey or Global Peptide Services, Colorado
Description: Biacore affinity of G1 Fab to CGRP variant on chip. The format is binding. The settings on record: 38A (25-38A) on chip, 37° C. The method, then:
Biacore assay for affinity determination. […] All Biacore assays were conducted in HBS-EP running buffer (10 mM HEPES pH 7.4, 150 mM NaCl, 3 mM EDTA, 0.005% v/v polysorbate P20). CGRP surfaces were prepared by diluting the N-biotinylated CGRP to a concentration of less than 0.001 mg/mL into HBS-EP buffer and injecting it across the SA sensor chip using variable contact times. Low capacity surfaces, corresponding to capture levels <50 response units (RU) were used for high-resolution kinetic studies, whereas high capacity surfaces (about 800 RU of captured CGRP) were used for concentration studies, screening, and solution affinity determinations. […] Samples were typically injected for 1 minute at 100 μL/min and dissociation times of at least 10 minutes were allowed. After each binding cycle, surfaces were regenerated with 25 mM NaOH in 25% v/v ethanol, which was tolerated over hundreds of cycles. An entire titration series (typically generated in duplicate) was fit globally to a 1:1 Langmuir binding model using the BIAevaluation program. This returned a unique pair of association and dissociation kinetic rate constants (respectively, kon and koff) for each binding interaction, whose ratio gave the equilibrium dissociation constant (KD=koff/kon).

In experiment [2] the test system is naïve central trigeminovascular neurons (HT, WDR) in the spinal trigeminal nucleus. Description: Single-unit recording of spontaneous and evoked activity of naïve trigeminovascular neurons. The experiment is classed as in vivo, rat. The note with it: 30 mg/kg i.v.; for effect on spontaneous activity of naïve HT and WDR neurons: 1-4 hours post-treatment vs baseline. An excerpt:
Experiments were approved by the Beth Israel Deaconess Medical Center and Harvard Medical School standing committees on animal care, and in accordance with the U.S. National Institutes of Health Guide for the Care and Use of Laboratory Animals. Male and female Sprague-Dawley rats (250-350 g) were anesthetized with urethane (0.9-1.2 g/kg i.p.). They were fitted with an intra-tracheal tube to allow artificial ventilation (0.1 L/min of O2), and an intra-femoral-vein cannula for later infusion of drugs. Rats were placed in a stereotaxic apparatus, and core temperature was kept at 37° C. using a heating blanket. End-tidal CO2 was continuously monitored and kept within physiological range (3.5-4.5 pCO2). Once stabilized, rats were paralyzed with rocuronium bromide (10 mg/ml, 1 ml/hr continuous intravenous infusion) and ventilated. For stimulation of the cranial dura later in the experiment, a 5×5-mm opening was carefully carved in the parietal and occipital bones in front and behind the lambda suture, directly above the left transverse sinus. The exposed dura was kept moist using a modified synthetic interstitial fluid (135 mM NaCl, 5 mM KCl, 1 mM MgCl2, 5 mM CaCl2), 10 mM glucose and 10 mM Hepes, pH 7.2). For single-unit recording in the spinal trigeminal nucleus, a segment of the spinal cord between the obex and C2 was uncovered from overlying tissues, stripped of the dura mater, and kept moist with mineral oil.
To record neuronal activity, a tungsten microelectrode (impedance 3-4 MΩ) was lowered repeatedly into the spinal trigeminal nucleus (STN) in search of central trigeminovascular neurons receiving convergent input from the dura and facial skin. Trigeminovascular neurons were first identified based on their responses to electrical stimulation of the dura. […] Dural receptive fields were mapped by indenting the dura (with the 4.19 g VFH monofilament) at points separated by 1 mm mediolaterally and rostrocaudally. Points at which dural indentation produced a response in ≥50% of the trials were considered inside the neurons receptive field. Cutaneous receptive fields were mapped by applying innocuous and noxious mechanical stimulation to all facial skin areas and the cornea. An area was considered outside the receptive field if no stimulus produced a response in ≥50% of the trials. Responses to mechanical stimulation of the skin were determined by applying brief (10 s) innocuous and noxious stimuli to the most sensitive portion of the cutaneous receptive field. Innocuous stimuli consisted of slowly passing a soft bristled brush across the cutaneous receptive field (one 5-s brush stroke from caudal to rostral and one 5-s brush stroke from rostral to caudal) and pressure applied with a loose arterial clip. Noxious stimuli consisted of pinch with a strong arterial clip (Palecek et al., 1992, J. Neurophysiol. 67:1562-1573; Dado et al., 1994, J. Neurophysiol. 71:981-1002; Burstein et al., 1998, J. Neurophysiol. 79:964-982). More intense or prolonged stimuli were not used to avoid inducing prolonged changes in spontaneous neuronal discharge or response properties. Responses to mechanical stimulation of the cornea consisted of gentle and slow brushing strokes with a thin paintbrush (about 10 hair-follicles). Two classes of neurons were thus identified: wide-dynamic-range (WDR) neurons (incrementally responsive to brush, pressure and pinch), and high-threshold (HT) neurons (unresponsive to brush). Real-time waveform discriminator was used to create and store a template for the action potential evoked in the neuron under study by electrical pulses on the dura; spikes of activity matching the template waveform were acquired and analyzed online and offline using Spike 2 software (CED, Cambridge, UK).
It was diluted in saline to a final dose of 30 mg/kg and administered intravenously (bolus injection, total volume 0.6-0.7 ml). […]

B1: G1: humanized monoclonal anti-CGRP antagonist antibody; heavy chain SEQ ID NO:11, light chain SEQ ID NO:12 (antibody)
heavy: EVQLVESGGGLVQPGGSLRLSCAASGFTFSNYWISWVRQAPGKGLEWVAEIRSESDASATHYAEAVKGRFTISRDNAKNSLYLQMNSLRAEDTAVYYCLAYFDYGLAIQNYWGQGTLVTVSSASTKGPSVFPLAPCSRSTSESTAALGCLVKDYFPEPVTVSWNSGALTSGVHTFPAVLQSSGLYSLSSVVTVPSSNFGTQTYTCNVDHKPSNTKVDKTVERKCCVECPPCPAPPVAGPSVFLFPPKPKDTLMISRTPEVTCVVVDVSHEDPEVQFNWYVDGVEVHNAKTKPREEQFNSTFRVVSVLTVVHQDWLNGKEYKCKVSNKGLPSSIEKTISKTKGQPREPQVYTLPPSREEMTKNQVSLTCLVKGFYPSDIAVEWESNGQPENNYKTTPPMLDSDGSFFLYSKLTVDKSRWQQGNVFSCSVMHEALHNHYTQKSLSLSPGK
light: EIVLTQSPATLSLSPGERATLSCKASKRVTTYVSWYQQKPGQAPRLLIYGASNRYLGIPARFSGSGSGTDFTLTISSLEPEDFAVYYCSQSYNYPYTFGQGTKLEIKRTVAAPSVFIFPPSDEQLKSGTASVVCLLNNFYPREAKVQWKVDNALQSGNSQESVTEQDSKDSTYSLSSTLTLSKADYEKHKVYACEVTHQGLSSPVTKSFNRGEC
B1: the “KD (nM)” value in experiment [1] was “No binding detected”. The “effect on spontaneous activity of naïve HT and WDR neurons” value in experiment [2] (female rats) is “did not reduce the spontaneous activity of HT or WDR neurons”; in experiment [2] (male rats), “reduced the spontaneous activity of the HT but not the WDR neurons”. Besides, the “decrease of firing of HT neurons in response to dural indentation” value worked out at 61% in experiment [2] (female rats, p=0.017) and 75% in experiment [2] (male rats, p=0.047). In experiment [2] (male and female rats), the “effect on sensitivity to mechanical stimulation of the dura (dural indentation), HT and WDR neurons” value was “reduced the sensitivity to mechanical stimulation of the dura in the HT but not the WDR neurons”. Also, the “effect on responses to innocuous (brush, pressure) or noxious (pinch) mechanical stimulation of the skin or the cornea” value in experiment [2] (male or female rats, HT or WDR neurons) is recorded as “did not alter the responses of HT or WDR neurons”. In experiment [2] (male rats, within 3-4 hrs, p=0.040), the “decrease of spontaneous neuronal firing, HT neurons” value amounted to 90%.
